According to US5759768A, “Assays for factors affecting circularization of DNA, assays for factors affecting DNA integration, factors, and uses thereof” (priority 1995, dated 1998):

Columns and labels:
Type in all cases: biochemical, HIV-1
[1] = test system: purified linear viral DNA; assay: Ligation of purified linear viral DNA by phage T4 DNA ligase and Klenow fragment; conditions: T4 DNA ligase alone
Procedure: Linear viral DNA was purified from cytoplasmic extracts of cells 4 hours post-infection as described above. In FIG. 22, a purified linear viral DNA was added to cytoplasmic extracts from uninfected SupT1 cells and incubated at 37° C. for 45 minutes. The uninfected SupT1 cells used for the preparation of extracts were either untreated (lanes 3-11) or cultured in the presence of 10 ng/ml phorbol 12-myristate 13-acetate for six hours prior to extraction (lane 2). […] Lanes 2-11: reaction products following incubation of purified linear viral DNA in uninfected extracts containing 1 mM ATP (lanes 2 and 3), nothing added (lane 4), 1 mM dATP (lane 5), 1 mM UTP (lane 6), 1 mM CTP (lane 7), 1 mM GTP (lane 8), 1 mM ATPγS (lane 9), or 1 mM ADP (lane 10). Lane 11: uninfected SupT1 cell extract was treated with proteinase K for 10 minutes at 37° C., then linear viral DNA was added and incubation continued for 45 minutes. In FIG. 23, lanes 1, 2, 4 and 5: purified linear viral DNA was incubated with T4 DNA ligase (lane 1), T4 polynucleotide kinase and T4 DNA ligase (lane 2), Klenow fragment of E. coli DNA polymerase I and T4 DNA ligase (lane 3), or Klenow fragment, T4 polynucleotide kinase, and T4 DNA ligase (lane 4). Lanes 3 and 6: in vitro circularization reaction products generated in cell extracts, included as size standards. […]

[2] = test system: viral DNA integrated into .phi.X174 target DNA; conditions: for Relative activity, % of standard: pretreatment/37° C./30 min, target DNA 10 μg/ml
Procedure: (§1) The chronically HIV-1 infected Molt IIIB human T cell line (HTLV IIIB virus strain) was the source of virus for cell-free infections. This human T cell line constitutively produces a low level of the HTLV-111B strain of HIV-1. Culture supernatant containing a high concentration of virus was prepared by incubating 300×10^6 Molt IIIB cells in 50 ml fresh RPMI 1640 medium containing 20% fetal calf serum and 10 ng of phorbol 12-myristate 13-acetate per ml for 20-24 hours. […] Cytoplasmic extracts (3 ml) were prepared 4-4.5 hours post-infection, by a modification of the procedure of Brown et al., Cell 49: 342-356 (1987).
At specified times after infection, cells were washed twice with buffer K (20 mM Hepes, pH 7.4, 150 mM KCl, 5 mM MgCl2, 1 mM dithiothreitol, […]) and then lysed at a concentration of 33×10^6 cells per ml in the same buffer containing 0.025% digitonin or 0.025% Triton X-100. Cells were extracted for 10 minutes at room temperature, and the lysate was centrifuged at 1000×g for 3 minutes, and is referred to as "cytoplasmic extract". Cytoplasmic extract was the source of viral DNA for analyses in the assays described below. The pellet from the initial low-speed centrifugation contained cell debris and intact nuclei and is called the "nuclear pellet". Cell extracts from uninfected SupT1 cells were prepared in the same manner.
DNA samples were layered on 0.8% agarose gels and electrophoresed at 1 V/cm for 15 hour in Tris/acetate/EDTA buffer. After electrophoresis, DNA was blotted by capillary action onto nitrocellulose (0.45 μm, Schleicher & Schuell). […]
Cytoplasmic extracts prepared from SupT1 cells 4 hours after infection with HIV-1 were incubated with exogenously added target DNA under integration reaction conditions. Products of the reactions were analyzed by Southern blot hybridization. The time course of integration into linear .phi.X174 DNA target was determined. […] Integration was detected by the shift of linear viral DNA on Southern blots from the characteristic 9.7-kilobase (kb) position to a position corresponding to viral DNA plus target DNA.

preintegration complexes = assay: Circularization mediated by partially purified preintegration complexes; conditions: pretreatment of uninfected SupT1 extracts
Procedure: Viral preintegration complexes were partially purified from cytoplasmic extracts by Sephacryl S400 gel filtration chromatography. Cytoplasmic extracts (0.8 ml) were loaded onto a 22-ml Sephacryl S400 (Pharmacia) column, 28 cm in height, equilibrated in buffer K containing 0.5% Triton X-100 at 4° C. Fractions (0.5 ml) were collected at a flow rate of approximately 0.2 ml/min.
The linear viral DNA present in cytoplasmic extracts is a part of the nucleoprotein preintegration complex that can be separated from the bulk of cellular proteins by gel filtration chromatography [Farnet and Haseltine, J. Virol., 65: 1910-1915 (1991)]. Preintegration complexes were partially purified by Sephacryl S400 column chromatography and tested for the ability to mediate the circularization of viral DNA. Cytoplasmic extracts (1 ml, vol) were fractionated by Sephacryl S-400 gel filtration chromatography as previously described. The void volume fractions of the column, containing the peak of viral DNA, were pooled (total volume, 1.5 ml) and incubated as follows with the results shown in FIG. 20. […]

[3] = test system: linear viral DNA (circularization); conditions: pretreatment for 30 minutes prior to addition of ATP
Procedure: as §1
At specified times after infection, cells were washed twice with buffer K (20 mM Hepes, pH 7.4, 150 mM KCl, 5 mM MgCl2, 1 mM dithiothreitol, […]) and then lysed at a concentration of 33×10^6 cells per ml in the same buffer containing 0.025% digitonin or 0.025% Triton X-100. Cells were extracted for 10 minutes at room temperature, and the lysate was centrifuged at 1000×g for 3 minutes, and is referred to as "cytoplasmic extract". Cytoplasmic extract was the source of viral DNA for analyses in the assays described below. […]
Cell extracts were prepared from cells four to five hours after infection with HIV-1, using the above-described methods to yield fully functional viral preintegration complexes. […] Therefore, only LTR-containing DNA fragments are detected. […]

| Molecule | ligation of the ends of linear viral DNA [1] | Relative activity, % of standard [2] | ability of uninfected extracts to restore 1-LTR and simple 2-LTR circle formation (preintegration complexes) | integration in vitro ([2]; pretreatment of extracts prior to incubation with target DNA) | circle formation [3] |
| --- | --- | --- | --- | --- | --- |
| T4 DNA ligase: phage T4 ligase (protein, UniProt P00970 1-487, looked up) DNA ligase: MILKILNEIASIGSTKQKQAILEKNKDNELLKRVYRLTYSRGLQYYIKKWPKPGIATQSFGMLTLTDMLDFIEFTLATRKLTGNAAIEELTGYITDGKKDDVEVLRRVMMRDLECGASVSIANKVWPGLIPEQPQMLASSYDEKGINKNIKFPAFAQLKADGARCFAEVRGDELDDVRLLSRAGNEYLGLDLLKEELIKMTAEARQIHPEGVLIDGELVYHEQVKKEPEGLDFLFDAYPENSKAKEFAEVAESRTASNGIANKSLKGTISEKEAQCMKFQVWDYVPLVEIYSLPAFRLKYDVRFSKLEQMTSGYDKVILIENQVVNNLDEAKVIYKKYIDQGLEGIILKNIDGLWENARSKNLYKFKEVIDVDLKIVGIYPHRKDPTKAGGFILESECGKIKVNAGSGLKDKAGVKSHELDRTRIMENQNYYIGKILECECNGWLKSDGRTDYVKLFLPIAIRLREDKTKANTFEDVFGDFHEVTGL | unable to ligate the ends of the linear DNA molecules | – | – | – | – |
| RNase A: RNase A (protein, UniProt P61823 27-150, looked up) Ribonuclease pancreatic: KETAAAKFERQHMDSSTSAASSSNYCNQMMKSRNLTKDRCKPVNTFVHESLADVQAVCSQKNVACKNGQTNCYQSYSTMSITDCRETGSSKYPNCAYKTTQANKHIIVACEGNPYVPVHFDASV | – | 100 % of standard | – | – | – |
| Proteinase K: an enzyme such as proteinase K (protein, UniProt P06873 106-384, looked up) Proteinase K: AAQTNAPWGLARISSTSPGTSTYYYDESAGQGSCVYVIDTGIEASHPEFEGRAQMVKTYYYSSRDGNGHGTHCAGTVGSRTYGVAKKTQLFGVKVLDDNGSGQYSTIIAGMDFVASDKNNRNCPKGVVASLSLGGGYSSSVNSAAARLQSSGVMVAVAAGNNNADARNYSPASEPSVCTVGASDRYDRRSSFSNYGSVLDIFGPGTSILSTWIGGSTRSISGTSMATPHVAGLAAYLMTLGKTTAASACRYIADTANKGDLSNIPFGTVNLLAYNNYQA | – | 0 % of standard | abolished the ability of the extracts to restore 1-LTR and simple 2-LTR circle formation | abolished integration in vitro | abolished circle formation |
